Assay results taken from patent US5444151A, “Platelet derived growth factor antagonists” (Ludwig Institute for Cancer Research, priority 1992, dated 1995).

Tested on: human foreskin fibroblasts
Test: Ligand stimulated [3H]thymidine incorporation
Format: cell-based
Excerpt: The possible role of peptide 16T as an antagonist for PDGF activity in vivo was investigated. Following the methodology of Betsholtz et al., J. Cell Physiol 118: 203-210 (1984), the disclosure of which is incorporated by reference, [^3 H] thymidine incorporation by human fibroblasts in the presence of various peptides was studied.

B1: PDGF-BB: platelet derived growth factor B chain homodimer (protein, UniProt P01127 82-190, looked up)
Platelet-derived growth …: SLGSLTIAEPAMIAECKTRTEVFEISRRLIDRTNANFLVWPPCVEVQRCSGCCNNRNVQCRPTQVQLRPVQVRKIEIVRKKPIFKKATVTLEDHLACKCETVAAARPVT
[3H]thymidine incorporation, ligand alone (no peptide (unstimulated control 483 cpm), mean of duplicates): 1918 cpm
Stimulation of [3H]thymidine incorporation by ligand (no peptide, versus unstimulated control): 4 fold
